Assay results reported in US20250115654A1, “PHARMACEUTICAL COMPOSITION OF GLP-1 RECEPTOR AND GIP RECEPTOR DUAL AGONIST, AND USE THEREOF” (FUJIAN SHENGDI PHARMACEUTICAL CO., LTD., priority 2021, published 2025).
Numbered stars: 1 amine (or outer) side, 2 acyl side, 3 side chain; on linkers, the order of the positions; unused ones are H or OH. Square brackets hold non-standard residues; d marks the D form. Side chains are listed from the residue outwards. Peptide text beside a SMILES is read from it. * marks the point of attachment. C20 diacid = O=C(O)CCCCCCCCCCCCCCCCCCC(=O)*; γGlu = O=C(O)[C@H](CCC(=O)[*:2])N[*:1]; AEEA = NCCOCCOCC(=O)O; Aib = CC(C)(N)C(=O)O

T1: human GIPR (Homo sapiens, UniProt P48546)
T1 construct: expressed in transfected cells; host or cells: wild-type CHO-K1, transient transfection with hGIP receptor plasmid (Fugene HD)
T1 sequence (P48546 22-466): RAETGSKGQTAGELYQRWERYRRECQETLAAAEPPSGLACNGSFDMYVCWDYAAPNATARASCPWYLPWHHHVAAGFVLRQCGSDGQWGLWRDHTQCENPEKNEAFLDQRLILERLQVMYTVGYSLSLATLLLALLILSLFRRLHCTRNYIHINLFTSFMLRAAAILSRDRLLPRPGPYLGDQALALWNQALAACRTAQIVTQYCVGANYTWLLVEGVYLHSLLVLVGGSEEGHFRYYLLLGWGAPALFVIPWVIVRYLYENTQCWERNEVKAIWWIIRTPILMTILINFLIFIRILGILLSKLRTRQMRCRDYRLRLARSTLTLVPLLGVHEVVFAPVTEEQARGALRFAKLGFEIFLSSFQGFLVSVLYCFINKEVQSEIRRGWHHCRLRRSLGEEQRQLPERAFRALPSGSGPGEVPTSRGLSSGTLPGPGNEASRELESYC

T2: human glucose-dependent insulinotropic polypeptide receptor (GIPR) (human, UniProt P48546)
T2 sequence: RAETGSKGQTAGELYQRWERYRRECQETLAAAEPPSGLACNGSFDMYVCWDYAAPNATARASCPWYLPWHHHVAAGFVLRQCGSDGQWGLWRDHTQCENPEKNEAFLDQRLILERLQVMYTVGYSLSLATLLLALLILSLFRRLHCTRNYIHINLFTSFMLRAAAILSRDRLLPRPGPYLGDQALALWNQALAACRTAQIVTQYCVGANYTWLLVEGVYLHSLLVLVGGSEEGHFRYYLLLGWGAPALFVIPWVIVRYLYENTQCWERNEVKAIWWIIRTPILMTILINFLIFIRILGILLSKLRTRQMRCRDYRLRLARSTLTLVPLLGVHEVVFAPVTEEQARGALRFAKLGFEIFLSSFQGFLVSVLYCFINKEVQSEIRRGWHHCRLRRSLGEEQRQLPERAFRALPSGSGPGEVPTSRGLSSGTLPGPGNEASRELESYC


Tests used:
[1] = molecular target: T1, human GIPR; assay: Agonist activity against GIPR, cAMP HTRF in CHO-K1 cells transiently transfected with hGIP receptor; assay type: cell-based; details: Table 6 run; read-out: Activity against human GIPR (EC50 nM)
Procedure: Wild-type CHO-K1 cells were collected, and the cell suspension was adjusted to an appropriate density, seeded in a 6-well plate at 2 mL/well, and placed in an incubator at 37° C. with 5% CO2 for adherence culture overnight.

[2] = molecular target: T2, human glucose-dependent insulinotropic …; assay: cell-based or functional assay
[3] = molecular target: human glucagon-like peptide-1 receptor (GLP-1R) (human, UniProt P43220); assay: cell-based or functional assay

| Molecule | EC50 [1] [nM] | Activity against human GIPR (EC50 nM); cAMP, HTRF [2] [nM] | Activity against human GLP-1R (EC50 nM); cAMP, HTRF [3] [nM] |
| --- | --- | --- | --- |
| CC[C@H](C)[C@H](NC(=O)[C@H](CCCNC(=N)N)NC(=O)[C@H](CCC(=O)O)NC(=O)[C@H](CCCCNC(=O)COCCOCCNC(=O)COCCOCCNC(=O)CC[C@H](NC(=O)CCCCCCCCCCCCCCCCCCC(=O)O)C(=O)O)NC(=O)[C@H](Cc1ccc(O)cc1)NC(=O)[C@@H](NC(=O)[C@H](CO)NC(=O)[C@H](Cc1ccc(O)cc1)NC(=O)[C@H](CC(=O)O)NC(=O)[C@H](CO)NC(=O)[C@@H](NC(=O)[C@H](Cc1ccccc1)NC(=O)[C@@H](NC(=O)CNC(=O)[C@H](CCC(=O)O)NC(=O)C(C)(C)NC(=O)[C@@H](N)Cc1ccc(O)cc1)[C@@H](C)O)[C@@H](C)O)[C@@H](C)CC)C(=O)N[C@@H](C)C(=O)N[C@@H](C)C(=O)N[C@@H](CCC(N)=O)C(=O)N[C@@H](CCC(=O)O)C(=O)N[C@@H](Cc1ccccc1)C(=O)N[C@H](C(=O)N[C@@H](CC(N)=O)C(=O)N[C@@H](Cc1c[nH]c2ccccc12)C(=O)N[C@@H](CC(C)C)C(=O)N[C@H](C(=O)N[C@@H](C)C(=O)NCC(=O)NCC(=O)N1CCC[C@H]1C(=O)N[C@@H](CO)C(=O)N[C@@H](CO)C(=O)NCC(=O)N[C@@H](C)C(=O)N1CCC[C@H]1C(=O)N1CCC[C@H]1C(=O)N1CCC[C@H]1C(=O)N[C@@H](CO)C(N)=O)[C@@H](C)CC)C(C)C [Compound 13] (H-Y[Aib]EGTFTSDYSIYK([AEEA-AEEA-γGlu-C20 diacid])ERIAAQEFVNWLIAGGPSSGAPPPS-NH2) | 0.13 | – | – |
| CC[C@H](C)[C@H](NC(=O)[C@H](CCCNC(=N)N)NC(=O)[C@H](CCC(=O)O)NC(=O)[C@H](CCCCNC(=O)COCCOCCNC(=O)COCCOCCNC(=O)CC[C@H](NC(=O)CCCCCCCCCCCCCCCCCCC(=O)O)C(=O)O)NC(=O)[C@H](Cc1ccc(O)cc1)NC(=O)[C@@H](NC(=O)[C@H](CO)NC(=O)[C@H](Cc1ccc(O)cc1)NC(=O)[C@H](CC(=O)O)NC(=O)[C@H](CO)NC(=O)[C@@H](NC(=O)[C@H](Cc1ccccc1)NC(=O)[C@@H](NC(=O)CNC(=O)[C@H](CCC(=O)O)NC(=O)C(C)(C)NC(=O)[C@@H](N)Cc1ccc(O)cc1)[C@@H](C)O)[C@@H](C)O)[C@@H](C)CC)C(=O)N[C@@H](C)C(=O)N[C@@H](C)C(=O)N[C@@H](CCC(N)=O)C(=O)N[C@@H](CCC(=O)O)C(=O)N[C@@H](Cc1ccccc1)C(=O)N[C@H](C(=O)N[C@@H](CC(N)=O)C(=O)N[C@@H](Cc1c[nH]c2ccccc12)C(=O)N[C@@H](CC(C)C)C(=O)N[C@@H](CC(C)C)C(=O)N[C@@H](C)C(=O)NCC(=O)NCC(=O)N1CCC[C@H]1C(=O)N[C@@H](CO)C(=O)N[C@@H](CO)C(=O)NCC(=O)N[C@@H](C)C(=O)N1CCC[C@H]1C(=O)N1CCC[C@H]1C(=O)N1CCC[C@H]1C(=O)N[C@@H](CO)C(N)=O)C(C)C [Compound 17] (H-Y[Aib]EGTFTSDYSIYK([AEEA-AEEA-γGlu-C20 diacid])ERIAAQEFVNWLLAGGPSSGAPPPS-NH2) | 0.11 | – | – |
| CC[C@H](C)[C@H](NC(=O)[C@H](CCCCNC(=O)COCCOCCNC(=O)COCCOCCNC(=O)CC[C@H](NC(=O)CCCCCCCCCCCCCCCCCCC(=O)O)C(=O)O)NC(=O)[C@H](CCC(=O)O)NC(=O)[C@H](CC(C)C)NC(=O)[C@H](Cc1ccc(O)cc1)NC(=O)[C@@H](NC(=O)[C@H](CO)NC(=O)[C@H](Cc1ccc(O)cc1)NC(=O)[C@H](CC(=O)O)NC(=O)[C@H](CO)NC(=O)[C@@H](NC(=O)[C@H](Cc1ccccc1)NC(=O)[C@@H](NC(=O)CNC(=O)[C@H](CCC(=O)O)NC(=O)C(C)(C)NC(=O)[C@@H](N)Cc1ccc(O)cc1)[C@@H](C)O)[C@@H](C)O)[C@@H](C)CC)C(=O)N[C@@H](C)C(=O)N[C@@H](C)C(=O)N[C@@H](CCC(N)=O)C(=O)N[C@@H](CCC(=O)O)C(=O)N[C@@H](Cc1ccccc1)C(=O)N[C@H](C(=O)N[C@@H](CC(N)=O)C(=O)N[C@@H](Cc1c[nH]c2ccccc12)C(=O)N[C@@H](CC(C)C)C(=O)N[C@H](C(=O)N[C@@H](C)C(=O)NCC(=O)NCC(=O)N1CCC[C@H]1C(=O)N[C@@H](CO)C(=O)N[C@@H](CO)C(=O)NCC(=O)N[C@@H](C)C(=O)N1CCC[C@H]1C(=O)N1CCC[C@H]1C(=O)N1CCC[C@H]1C(=O)N[C@@H](CO)C(N)=O)[C@@H](C)CC)[C@@H](C)CC [Compound 10] (H-Y[Aib]EGTFTSDYSIYLEK([AEEA-AEEA-γGlu-C20 diacid])IAAQEFINWLIAGGPSSGAPPPS-NH2) | 0.056 | – | – |
| H-Y[Aib]EGTFTSDYSIYK([AEEA-AEEA-γGlu-C20‑OH])EKIAAQEFVNWLIAGGPSSGAPPPS-NH2 [compound 12# H-YAibEGTFTSDYSIYK(OEG-OEG-yGlu-C20-OH)EKIAAQEFVNWLIAGGPSSGAPPPS-NH2] | – | 0.17 | 0.03 |
| H-Y[Aib]EGTFTSDYSIYK([AEEA-AEEA-γGlu-C20‑OH])ERIAAQEFVNWLIAGGPSSGAPPPS-NH2 [compound 13# H-YAibEGTFTSDYSIYK(OEG-OEG-yGlu-C20-OH)ERIAAQEFVNWLIAGGPSSGAPPPS-NH2] | – | 0.13 | 0.017 |
| H-Y[Aib]EGTFTSDYSIYK([AEEA-AEEA-γGlu-C20‑OH])EKIAAQEFVNWLLAGGPSSGAPPPS-NH2 [compound 18# H-YAibEGTFTSDYSIYK(OEG-OEG-yGlu-C20-OH)EKIAAQEFVNWLLAGGPSSGAPPPS-NH2] | – | 0.06 | 0.013 |
| H-Y[Aib]EGTFTSDYSIYK([AEEA-AEEA-γGlu-C20‑OH])EKIAAQEFINWLIAGGPSSGAPPPS-NH2 [compound 14# H-YAibEGTFTSDYSIYK(OEG-OEG-yGlu-C20-OH)EKIAAQEFINWLIAGGPSSGAPPPS-NH2] | – | 0.13 | 0.013 |
| H-Y[Aib]EGTFTSDYSIYK([AEEA-AEEA-γGlu-C20‑OH])ERIAAQEFINWLIAGGPSSGAPPPS-NH2 [compound 15# H-YAibEGTFTSDYSIYK(OEG-OEG-yGlu-C20-OH)ERIAAQEFINWLIAGGPSSGAPPPS-NH2] | – | 0.23 | 0.015 |
| H-Y[Aib]EGTFTSDYSIYLEK([AEEA-AEEA-γGlu-C20‑OH])IAAQEFVNWLIAGGPSSGAPPPS-NH2 [compound 9# H-YAibEGTFTSDYSIYLEK(OEG-OEG-yGlu-C20-OH)IAAQEFVNWLIAGGPSSGAPPPS-NH2] | – | 0.04 | 0.049 |
| H-Y[Aib]EGTFTSDYSIYLEK([AEEA-AEEA-γGlu-C20‑OH])IAAQEFINWLIAGGPSSGAPPPS-NH2 [compound 10# H-YAibEGTFTSDYSIYLEK(OEG-OEG-yGlu-C20-OH)IAAQEFINWLIAGGPSSGAPPPS-NH2] | – | 0.056 | 0.065 |
| H-Y[Aib]EGTFTSDYSIYK([AEEA-AEEA-γGlu-C20‑OH])EKIAAQEFINWLLAGGPSSGAPPPS-NH2 [compound 16# H-YAibEGTFTSDYSIYK(OEG-OEG-yGlu-C20-OH)EKIAAQEFINWLLAGGPSSGAPPPS-NH2] | – | 0.095 | 0.029 |
| H-Y[Aib]EGTFTSDYSIYK([AEEA-AEEA-γGlu-C20‑OH])ERIAAQEFVNWLLAGGPSSGAPPPS-NH2 [compound 17# H-YAibEGTFTSDYSIYK(OEG-OEG-yGlu-C20-OH)ERIAAQEFVNWLLAGGPSSGAPPPS-NH2] | – | 0.11 | 0.022 |
